Results: doi:10.1101/2022.08.12.503734

Target: GST-Cln3-10A (S. cerevisiae (budding yeast)) (UniProt P13365)
Assay: pull-down

UniProt P13365, sequence (P13365 whole entry): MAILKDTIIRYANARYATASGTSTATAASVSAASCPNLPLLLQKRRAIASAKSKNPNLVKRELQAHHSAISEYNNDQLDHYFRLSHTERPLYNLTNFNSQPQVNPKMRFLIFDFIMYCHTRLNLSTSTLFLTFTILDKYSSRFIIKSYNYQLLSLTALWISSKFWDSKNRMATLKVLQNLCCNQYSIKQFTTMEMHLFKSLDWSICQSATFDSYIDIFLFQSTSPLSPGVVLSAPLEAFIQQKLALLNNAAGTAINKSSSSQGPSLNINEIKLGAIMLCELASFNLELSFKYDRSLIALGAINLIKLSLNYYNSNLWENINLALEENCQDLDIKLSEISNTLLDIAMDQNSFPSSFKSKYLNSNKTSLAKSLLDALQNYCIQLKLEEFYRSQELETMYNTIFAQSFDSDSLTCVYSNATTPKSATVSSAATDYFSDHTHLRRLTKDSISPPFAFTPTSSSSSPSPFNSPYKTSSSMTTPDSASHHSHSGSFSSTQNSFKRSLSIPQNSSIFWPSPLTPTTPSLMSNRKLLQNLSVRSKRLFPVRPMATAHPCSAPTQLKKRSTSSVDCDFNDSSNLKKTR
Cdk1, sequence (P00546 whole entry): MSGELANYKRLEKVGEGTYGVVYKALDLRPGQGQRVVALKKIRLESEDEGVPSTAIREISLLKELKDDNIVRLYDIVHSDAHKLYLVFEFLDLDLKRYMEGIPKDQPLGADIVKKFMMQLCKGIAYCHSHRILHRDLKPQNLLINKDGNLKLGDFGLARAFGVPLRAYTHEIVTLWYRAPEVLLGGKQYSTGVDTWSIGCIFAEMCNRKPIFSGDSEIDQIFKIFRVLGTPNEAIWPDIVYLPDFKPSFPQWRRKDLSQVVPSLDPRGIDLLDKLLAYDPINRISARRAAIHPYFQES

- fold lower amount of associated Cdk1 than with GST-Clb2: 6 fold
Substance: Cdk1 (from UniProt P00546 1-298) (enzyme)
